T1: human B7-H4 on cells (human, UniProt Q7Z7D3 25-282)
T1 sequence (looked up): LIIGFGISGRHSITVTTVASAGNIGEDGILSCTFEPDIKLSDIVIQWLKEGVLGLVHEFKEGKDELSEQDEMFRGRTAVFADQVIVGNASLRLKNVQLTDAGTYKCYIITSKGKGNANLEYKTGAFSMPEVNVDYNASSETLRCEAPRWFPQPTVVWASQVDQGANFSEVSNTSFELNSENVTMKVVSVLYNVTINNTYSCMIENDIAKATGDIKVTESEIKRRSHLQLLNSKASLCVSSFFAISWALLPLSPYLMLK


Target: T1, human B7-H4 on cells
Test: cell-based or functional assay
For T cell mediated tumor cell killing, OVCAR3-Luc in this document: unit not given here.

Row | Binder | T cell mediated tumor cell killing EC50, HCC1954-Luc | T cell mediated tumor cell killing, OVCAR3-Luc
1 | B7-H4xCD3 bispecific antibody 1130 (bispecific antibody, IgG2) heavy 1: EVQLVESGGGLVQPGGSLRLSCAASGGSFSGYYWNWIRQPPGKGLEWIGEINHSGSATYNPSLKSRVTISVDTAKNSLYLQMNSLRAEDTAVYYCARGLYNWNVDHWGQGTLVTVSSASTKGPSVFPLAPCSRSTSESTAALGCLVKDYFPEPVTVSWNSGALTSGVHTFPAVLQSSGLYSLSSVVTVPSSNFGTQTYTCNVDHKPSNTKVDKTVERKCEVECPECPAPPVAGPSVFLFPPKPKDTLMISRTPEVTCVVVAVSHEDPEVQFNWYVDGVEVHNAKTKPREEQFNSTFRVVSVLTVVHQDWLNGKEYKCKVSNKGLPSSIEKTISKTKGQPREPQVYTLPPSREEMTKNQVSLTCEVKGFYPSDIAVEWESNGQPENNYKTTPPMLDSDGSFFLYSKLTVDKSRWQQGNVFSCSVMHEALHNHYTQKSLSLSPG light 1: DIQMTQSPSSLSASVGDRVTITCRASQGIRNDLGWYQQKPGKAPKRLIYAASSLQSGVPSRFSGSGSGTDFTLTISSLQPEDFATYYCLQHNAYPRTFGGGTKVEIKRTVAAPSVFIFPPSDEQLKSGTASVVCLLNNFYPREAKVQWKVDNALQSGNSQESVTEQDSKDSTYSLSSTLTLSKADYEKHKVYACEVTHQGLSSPVTKSFNRGEC heavy 2: EVQLVESGGGLVQPGGSLRLSCAASGFTFSDYYMTWVRQAPGKGLEWVAFIRNQARGYTSDHNPSVKGRFTISRDNAKNSLYLQMNSLRAEDTAVYYCARDRPSYYVLDYWGQGTTVTVSSASTKGPSVFPLAPCSRSTSESTAALGCLVKDYFPEPVTVSWNSGALTSGVHTFPAVLQSSGLYSLSSVVTVPSSNFGTQTYTCNVDHKPSNTKVDKTVERKCRVRCPRCPAPPVAGPSVFLFPPKPKDTLMISRTPEVTCVVVAVSHEDPEVQFNWYVDGVEVHNAKTKPREEQFNSTFRVVSVLTVVHQDWLNGKEYKCKVSNKGLPSSIEKTISKTKGQPREPQVYTLPPSREEMTKNQVSLTCLVKGFYPSDIAVEWESNGQPENNYKTTPPMLDSDGSFFLYSRLTVDKSRWQQGNVFSCSVMHEALHNHYTQKSLSLSPGK light 2: DIQMTQSPSSLSASVGDRVTITCTSSQSLFNVRSQKNYLAWYQQKPGKAPKLLIYWASTRESGVPSRFSGSGSGTDFTLTISSLQPEDFATYYCKQSYDLFTFGGGTKVEIKRTVAAPSVFIFPPSDEQLKSGTASVVCLLNNFYPREAKVQWKVDNALQSGNSQESVTEQDSKDSTYSLSSTLTLSKADYEKHKVYACEVTHQGLSSPVTKSFNRGEC | 73.7 µM | 810
2 | B7-H4xCD3 bispecific antibody 0974 (bispecific antibody, IgG2) heavy 1: EVQLVESGGGLVQPGGSLRLSCAASGGSFSGYYWNWIRQPPGKGLEWIGEIDHQGSTKYNPSLKSRVTISVDTAKNSLYLQMNSLRAEDTAVYYCARGLYNWNVDHWGQGTLVTVSSASTKGPSVFPLAPCSRSTSESTAALGCLVKDYFPEPVTVSWNSGALTSGVHTFPAVLQSSGLYSLSSVVTVPSSNFGTQTYTCNVDHKPSNTKVDKTVERKCEVECPECPAPPVAGPSVFLFPPKPKDTLMISRTPEVTCVVVAVSHEDPEVQFNWYVDGVEVHNAKTKPREEQFNSTFRVVSVLTVVHQDWLNGKEYKCKVSNKGLPSSIEKTISKTKGQPREPQVYTLPPSREEMTKNQVSLTCEVKGFYPSDIAVEWESNGQPENNYKTTPPMLDSDGSFFLYSKLTVDKSRWQQGNVFSCSVMHEALHNHYTQKSLSLSPG light 1: DIQMTQSPSSLSASVGDRVTITCRASQGIRNDLGWYQQKPGKAPKRLIYAASSLQSGVPSRFSGSGSGTDFTLTISSLQPEDFATYYCLQHNAYPRTFGGGTKVEIKRTVAAPSVFIFPPSDEQLKSGTASVVCLLNNFYPREAKVQWKVDNALQSGNSQESVTEQDSKDSTYSLSSTLTLSKADYEKHKVYACEVTHQGLSSPVTKSFNRGEC heavy 2: EVQLVESGGGLVQPGGSLRLSCAASGFTFSDYYMTWVRQAPGKGLEWVAFIRNQARGYTSDHNPSVKGRFTISRDNAKNSLYLQMNSLRAEDTAVYYCARDRPSYYVLDYWGQGTTVTVSSASTKGPSVFPLAPCSRSTSESTAALGCLVKDYFPEPVTVSWNSGALTSGVHTFPAVLQSSGLYSLSSVVTVPSSNFGTQTYTCNVDHKPSNTKVDKTVERKCRVRCPRCPAPPVAGPSVFLFPPKPKDTLMISRTPEVTCVVVAVSHEDPEVQFNWYVDGVEVHNAKTKPREEQFNSTFRVVSVLTVVHQDWLNGKEYKCKVSNKGLPSSIEKTISKTKGQPREPQVYTLPPSREEMTKNQVSLTCLVKGFYPSDIAVEWESNGQPENNYKTTPPMLDSDGSFFLYSRLTVDKSRWQQGNVFSCSVMHEALHNHYTQKSLSLSPGK light 2: DIQMTQSPSSLSASVGDRVTITCTSSQSLFNVRSQKNYLAWYQQKPGKAPKLLIYWASTRESGVPSRFSGSGSGTDFTLTISSLQPEDFATYYCKQSYDLFTFGGGTKVEIKRTVAAPSVFIFPPSDEQLKSGTASVVCLLNNFYPREAKVQWKVDNALQSGNSQESVTEQDSKDSTYSLSSTLTLSKADYEKHKVYACEVTHQGLSSPVTKSFNRGEC | 0.764 µM | –
3 | B7-H4xCD3 bispecific antibody 1166 (bispecific antibody, IgG2) heavy 1: EVQLLESGGGLVQPGGSLRLSCAASGFTFSSYAMSWVRQAPGKGLEWVSAISGGGGSTYYADSVKGRFTISRDNSKNTLYLQMNSLRAEDTAVYYCARDIQWYGESTLFDYWGQGTLVTVSSASTKGPSVFPLAPCSRSTSESTAALGCLVKDYFPEPVTVSWNSGALTSGVHTFPAVLQSSGLYSLSSVVTVPSSNFGTQTYTCNVDHKPSNTKVDKTVERKCEVECPECPAPPVAGPSVFLFPPKPKDTLMISRTPEVTCVVVAVSHEDPEVQFNWYVDGVEVHNAKTKPREEQFNSTFRVVSVLTVVHQDWLNGKEYKCKVSNKGLPSSIEKTISKTKGQPREPQVYTLPPSREEMTKNQVSLTCEVKGFYPSDIAVEWESNGQPENNYKTTPPMLDSDGSFFLYSKLTVDKSRWQQGNVFSCSVMHEALHNHYTQKSLSLSPG light 1: DIQMTQSPSSLSASVGDRVTITCRASQSTRSWLAWYQQKPGKAPKLLIYKASSLEGGVPSRFSGSGSGTDFTLTISSLQPEDFATYYCQQYGSYSRTFGQGTKVEIKRTVAAPSVFIFPPSDEQLKSGTASVVCLLNNFYPREAKVQWKVDNALQSGNSQESVTEQDSKDSTYSLSSTLTLSKADYEKHKVYACEVTHQGLSSPVTKSFNRGEC heavy 2: EVQLVESGGGLVQPGGSLRLSCAASGFTFSDYYMTWVRQAPGKGLEWVAFIRNQARGYTSDHNPSVKGRFTISRDNAKNSLYLQMNSLRAEDTAVYYCARDRPSYYVLDYWGQGTTVTVSSASTKGPSVFPLAPCSRSTSESTAALGCLVKDYFPEPVTVSWNSGALTSGVHTFPAVLQSSGLYSLSSVVTVPSSNFGTQTYTCNVDHKPSNTKVDKTVERKCRVRCPRCPAPPVAGPSVFLFPPKPKDTLMISRTPEVTCVVVAVSHEDPEVQFNWYVDGVEVHNAKTKPREEQFNSTFRVVSVLTVVHQDWLNGKEYKCKVSNKGLPSSIEKTISKTKGQPREPQVYTLPPSREEMTKNQVSLTCLVKGFYPSDIAVEWESNGQPENNYKTTPPMLDSDGSFFLYSRLTVDKSRWQQGNVFSCSVMHEALHNHYTQKSLSLSPGK light 2: DIQMTQSPSSLSASVGDRVTITCTSSQSLFNVRSQKNYLAWYQQKPGKAPKLLIYWASTRESGVPSRFSGSGSGTDFTLTISSLQPEDFATYYCKQSYDLFTFGGGTKVEIKRTVAAPSVFIFPPSDEQLKSGTASVVCLLNNFYPREAKVQWKVDNALQSGNSQESVTEQDSKDSTYSLSSTLTLSKADYEKHKVYACEVTHQGLSSPVTKSFNRGEC | 15.5 µM | 800
4 | B7-H4xCD3 bispecific antibody 1135 (bispecific antibody, IgG2) heavy 1: EVQLVESGGGLVQPGGSLRLSCAASGGSFSGYYWNWVRQAPGKGLEWIGEINHSGSATYNPSLKSRVTISVDTAKNSLYLQMNSLRAEDTAVYYCARGLYNWNVDHWGQGTLVTVSSASTKGPSVFPLAPCSRSTSESTAALGCLVKDYFPEPVTVSWNSGALTSGVHTFPAVLQSSGLYSLSSVVTVPSSNFGTQTYTCNVDHKPSNTKVDKTVERKCEVECPECPAPPVAGPSVFLFPPKPKDTLMISRTPEVTCVVVAVSHEDPEVQFNWYVDGVEVHNAKTKPREEQFNSTFRVVSVLTVVHQDWLNGKEYKCKVSNKGLPSSIEKTISKTKGQPREPQVYTLPPSREEMTKNQVSLTCEVKGFYPSDIAVEWESNGQPENNYKTTPPMLDSDGSFFLYSKLTVDKSRWQQGNVFSCSVMHEALHNHYTQKSLSLSPG light 1: DIQMTQSPSSLSASVGDRVTITCRASQGIRNDLGWYQQKPGKAPKRLIYAASSLQSGVPSRFSGSGSGTDFTLTISSLQPEDFATYYCLQHNAYPRTFGGGTKVEIKRTVAAPSVFIFPPSDEQLKSGTASVVCLLNNFYPREAKVQWKVDNALQSGNSQESVTEQDSKDSTYSLSSTLTLSKADYEKHKVYACEVTHQGLSSPVTKSFNRGEC heavy 2: EVQLVESGGGLVQPGGSLRLSCAASGFTFSDYYMTWVRQAPGKGLEWVAFIRNQARGYTSDHNPSVKGRFTISRDNAKNSLYLQMNSLRAEDTAVYYCARDRPSYYVLDYWGQGTTVTVSSASTKGPSVFPLAPCSRSTSESTAALGCLVKDYFPEPVTVSWNSGALTSGVHTFPAVLQSSGLYSLSSVVTVPSSNFGTQTYTCNVDHKPSNTKVDKTVERKCRVRCPRCPAPPVAGPSVFLFPPKPKDTLMISRTPEVTCVVVAVSHEDPEVQFNWYVDGVEVHNAKTKPREEQFNSTFRVVSVLTVVHQDWLNGKEYKCKVSNKGLPSSIEKTISKTKGQPREPQVYTLPPSREEMTKNQVSLTCLVKGFYPSDIAVEWESNGQPENNYKTTPPMLDSDGSFFLYSRLTVDKSRWQQGNVFSCSVMHEALHNHYTQKSLSLSPGK light 2: DIQMTQSPSSLSASVGDRVTITCTSSQSLFNVRSQKNYLAWYQQKPGKAPKLLIYWASTRESGVPSRFSGSGSGTDFTLTISSLQPEDFATYYCKQSYDLFTFGGGTKVEIKRTVAAPSVFIFPPSDEQLKSGTASVVCLLNNFYPREAKVQWKVDNALQSGNSQESVTEQDSKDSTYSLSSTLTLSKADYEKHKVYACEVTHQGLSSPVTKSFNRGEC | 1.2 µM | 420

From US20220017622A1 (Pfizer, published 2022)
